Experimental data taken from article PMC11432991.

Test system: MexT-(His)6 (Pseudomonas poae PMA22)
Test: EMSA
Details: 10 mM MgCl2, 5.4-134.5 ng MexT, 1 nM probe, EMSA: 20 mM Tris-HCl pH 8, 150 mM KCl, 10 mM MgCl2, 10% glycerol, 2 mM beta-mercaptoethanol, 50 ug/mL BSA, 9 uL, 20 min room temperature, 5% PAGE in 0.5x TBE

| Substance | binding signal (fold higher affinity than Pa probe) | binding signal (scale: fold of Pi affinity) |
| --- | --- | --- |
| Pi promoter probe | 3 | – |
| Pa promoter probe | – | 0.33 |
